# Laboratory results as given in patent publication US20120021092A1.
# How the values were obtained:
# Test in all cases: cell-based or functional assay
# [1] = biological target: Bacillus subtilis xylanase variant G13Y/I77V/K99Y/T104W/T110A/Y113D/R122F/K154R/N159D/Q175L (modifications made to SEQ ID No. 1) (Bacillus subtilis) (UniProt P18429)
# [2] = biological target: Bacillus subtilis xylanase variant G13Y/K99Y/T104W/T110A/Y113D/N114Y/R122F/K154R/N159D/L175K (modifications made to SEQ ID No. 1) (Bacillus subtilis) (UniProt P18429)
# [3] = biological target: Bacillus subtilis xylanase variant G13Y/K99Y/T104W/T110A/Y113D/N114D/R122F/K154R/N159D/Q175L (modifications made to SEQ ID No. 1) (Bacillus subtilis) (UniProt P18429)
# [4] = biological target: Bacillus subtilis xylanase variant BS3 (wildtype with D11F/R122D mutations) (Bacillus subtilis) (UniProt P18429)
# [5] = biological target: Bacillus subtilis xylanase variant D11F/R122D/T110A (modifications made to SEQ ID No. 1) (Bacillus subtilis) (UniProt P18429)
# [6] = biological target: Bacillus subtilis xylanase variant G13Y/I77M/K99Y/T104W/T110A/Y113D/R122F/K154R/N159D/Q175L (modifications made to SEQ ID No. 1) (Bacillus subtilis) (UniProt P18429)
# [7] = biological target: Bacillus subtilis xylanase variant G13Y/I77Y/K99Y/T104W/T110A/Y113D/R122F/K154R/N159D/Q175L (modifications made to SEQ ID No. 1) (Bacillus subtilis) (UniProt P18429)
# [8] = biological target: Bacillus subtilis xylanase variant G13Y/K99Y/T104W/T110A/Y113D/R122F/K154R/N159D/Q175K (modifications made to SEQ ID No. 1) (Bacillus subtilis) (UniProt P18429)
# [9] = biological target: Bacillus subtilis xylanase variant G13Y/T110A/Y113D/R122D/S162D/Q175L (modifications made to SEQ ID No. 1) (Bacillus subtilis) (UniProt P18429)
# [10] = biological target: Bacillus subtilis xylanase variant G13Y/K99Y/T104W/T110A/Y113D/N114D/R122F/K154R/N159D/L175K (modifications made to SEQ ID No. 1) (Bacillus subtilis) (UniProt P18429)
# [11] = biological target: Bacillus subtilis xylanase variant D11F/R122D/Q175Y/S179Y (modifications made to SEQ ID No. 1) (Bacillus subtilis) (UniProt P18429)
# [12] = biological target: Bacillus subtilis xylanase variant G13Y/K99Y/T104W/T110A/Y113D/N114F/R122F/K154R/N159D/Q175L (modifications made to SEQ ID No. 1) (Bacillus subtilis) (UniProt P18429)
# [13] = biological target: Bacillus subtilis xylanase variant G13Y/T110A/Y113D/R122D/S162E/Q175L (modifications made to SEQ ID No. 1) (Bacillus subtilis) (UniProt P18429)
# [14] = biological target: Bacillus subtilis xylanase variant G13F/Y113D/R122D/Q175L (modifications made to SEQ ID No. 1) (Bacillus subtilis) (UniProt P18429)
# [15] = biological target: Bacillus subtilis xylanase variant G13Y/K99Y/T104W/Y113D/R122D/Q175L (modifications made to SEQ ID No. 1) (Bacillus subtilis) (UniProt P18429)
# [16] = biological target: Bacillus subtilis xylanase variant D11F/R122D/Q175E (modifications made to SEQ ID No. 1) (Bacillus subtilis) (UniProt P18429)
# [17] = biological target: Bacillus subtilis xylanase variant G13Y/Y113D/R122F/Q175L (modifications made to SEQ ID No. 1) (Bacillus subtilis) (UniProt P18429)
# [18] = biological target: Bacillus subtilis xylanase variant G13Y/K99Y/T104W/T110A/Y113D/R122F/K154R/N159D/Y166F/Q175L (modifications made to SEQ ID No. 1) (Bacillus subtilis) (UniProt P18429)
# [19] = biological target: Bacillus subtilis xylanase variant G13Y/I77L/K99Y/T104W/T110A/Y113D/R122F/K154R/N159D/Q175L (modifications made to SEQ ID No. 1) (Bacillus subtilis) (UniProt P18429)
# [20] = biological target: Bacillus subtilis xylanase variant G13Y/I77S/K99Y/T104W/T110A/Y113D/R122F/K154R/N159D/Q175L (modifications made to SEQ ID No. 1) (Bacillus subtilis) (UniProt P18429)
# [21] = biological target: Bacillus subtilis xylanase variant G13Y/K99Y/T104W/T110A/Y113D/I118V/R122F/K154R/N159D/Q175L (modifications made to SEQ ID No. 1) (Bacillus subtilis) (UniProt P18429)
# [22] = biological target: Bacillus subtilis xylanase variant G13Y/V81I/K99Y/T104W/T110A/Y113D/R122F/K154R/N159D/Q175L (modifications made to SEQ ID No. 1) (Bacillus subtilis) (UniProt P18429)
# [23] = biological target: Bacillus subtilis xylanase variant G12F/Y113D/R122D/Q175L (modifications made to SEQ ID No. 1) (Bacillus subtilis) (UniProt P18429)
# [24] = biological target: Bacillus subtilis xylanase variant G13Y/T110A/Y113D/R122D/Q175L (modifications made to SEQ ID No. 1) (Bacillus subtilis) (UniProt P18429)
# [25] = biological target: Bacillus subtilis xylanase variant G13Y/T110A/Y113D/R122F/Q175L (modifications made to SEQ ID No. 1) (Bacillus subtilis) (UniProt P18429)
# [26] = biological target: Bacillus subtilis xylanase variant G13Y/G34K/T110A/Y113D/R122D/Q175L (modifications made to SEQ ID No. 1) (Bacillus subtilis) (UniProt P18429)
# [27] = biological target: Bacillus subtilis XynA wildtype xylanase (SEQ ID No. 1), no modifications (Bacillus subtilis) (UniProt P18429)
# [28] = biological target: Bacillus subtilis xylanase variant G13Y/I15Y/Y113D/R122D/Q175L (modifications made to SEQ ID No. 1) (Bacillus subtilis) (UniProt P18429)
# [29] = biological target: Bacillus subtilis xylanase variant G13Y/T110A/Y113D/R122D/K154R/N159D/Q175L (modifications made to SEQ ID No. 1) (Bacillus subtilis) (UniProt P18429)
# [30] = biological target: Bacillus subtilis xylanase variant G13Y/K99Y/T104W/T110A/Y113D/R122F/K154R/N159D/Q175L (modifications made to SEQ ID No. 1) (Bacillus subtilis) (UniProt P18429)
# [31] = biological target: Bacillus subtilis xylanase variant D11F/R122D/Y113A (modifications made to SEQ ID No. 1) (Bacillus subtilis) (UniProt P18429)
# [32] = biological target: Bacillus subtilis xylanase variant G13Y/K99Y/T104W/T110A/Y113D/N114Y/R122F/K154R/N159D/Q175L (modifications made to SEQ ID No. 1) (Bacillus subtilis) (UniProt P18429)
# [33] = biological target: Bacillus subtilis xylanase variant G13Y/T110A/Y113D/R122D/W164F/Q175L (modifications made to SEQ ID No. 1) (Bacillus subtilis) (UniProt P18429)
# [34] = biological target: Bacillus subtilis xylanase variant D11F/R122D/T110A/Y113A (modifications made to SEQ ID No. 1) (Bacillus subtilis) (UniProt P18429)
# [35] = biological target: Bacillus subtilis xylanase variant G13Y/Y113D/R122D/Q175L (modifications made to SEQ ID No. 1) (Bacillus subtilis) (UniProt P18429)
# crude xylanase inhibitor preparation from wheat (Triticum aestivum) flour, containing both TAXI and XIP, sequence (main, form in doubt): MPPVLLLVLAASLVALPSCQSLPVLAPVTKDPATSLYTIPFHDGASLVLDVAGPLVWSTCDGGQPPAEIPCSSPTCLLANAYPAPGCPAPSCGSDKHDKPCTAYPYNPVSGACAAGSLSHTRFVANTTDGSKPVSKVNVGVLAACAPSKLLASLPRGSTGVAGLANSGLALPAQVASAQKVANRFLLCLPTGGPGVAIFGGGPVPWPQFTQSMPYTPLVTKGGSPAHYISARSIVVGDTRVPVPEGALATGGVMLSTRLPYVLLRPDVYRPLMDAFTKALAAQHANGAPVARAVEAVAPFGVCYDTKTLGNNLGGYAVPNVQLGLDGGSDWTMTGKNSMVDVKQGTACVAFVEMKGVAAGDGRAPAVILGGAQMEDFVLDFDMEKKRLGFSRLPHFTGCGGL
substance,measurement,setting,value
"crude xylanase inhibitor preparation from wheat (Triticum aestivum) flour, containing both TAXI and XIP",% Activity @ 50 XIU/ml (residual xylanase activity),[1],45%
same,% Activity @ 50 XIU/ml (residual xylanase activity),[2],84%
same,% Activity @ 50 XIU/ml (residual xylanase activity),[3],79%
same,% Activity @ 5.6 XIU/ml (residual xylanase activity),[4],100%
same,% Activity @ 33.5 XIU/ml (residual xylanase activity),[4],100%
same,% Activity @ 50 XIU/ml (residual xylanase activity),[4],95%
same,% Activity @ 5.6 XIU/ml (residual xylanase activity),[5],98%
same,% Activity @ 33.5 XIU/ml (residual xylanase activity),[5],100%
same,% Activity @ 50 XIU/ml (residual xylanase activity),[6],46%
same,% Activity @ 50 XIU/ml (residual xylanase activity),[7],37%
same,% Activity @ 50 XIU/ml (residual xylanase activity),[8],72%
same,% Activity @ 50 XIU/ml (residual xylanase activity),[9],40%
same,% Activity @ 50 XIU/ml (residual xylanase activity),[10],79%
same,% Activity @ 5.6 XIU/ml (residual xylanase activity),[11],100%
same,% Activity @ 50 XIU/ml (residual xylanase activity),[12],79%
same,% Activity @ 50 XIU/ml (residual xylanase activity),[13],44%
same,% Activity @ 5.6 XIU/ml (residual xylanase activity),[14],100%
same,% Activity @ 33.5 XIU/ml (residual xylanase activity),[14],90%
same,% Activity @ 33.5 XIU/ml (residual xylanase activity),[15],80%
same,% Activity @ 5.6 XIU/ml (residual xylanase activity),[16],100%
same,% Activity @ 50 XIU/ml (residual xylanase activity),[17],90%
same,% Activity @ 50 XIU/ml (residual xylanase activity),[18],68%
same,% Activity @ 50 XIU/ml (residual xylanase activity),[19],75%
same,% Activity @ 50 XIU/ml (residual xylanase activity),[20],20%
same,% Activity @ 50 XIU/ml (residual xylanase activity),[21],79%
same,% Activity @ 50 XIU/ml (residual xylanase activity),[22],46%
same,% Activity @ 5.6 XIU/ml (residual xylanase activity),[23],100%
same,% Activity @ 33.5 XIU/ml (residual xylanase activity),[24],50%
same,% Activity @ 50 XIU/ml (residual xylanase activity),[25],65%
same,% Activity @ 50 XIU/ml (residual xylanase activity),[26],97%
same,% Activity @ 5.6 XIU/ml (residual xylanase activity),[27],29%
same,% Activity @ 33.5 XIU/ml (residual xylanase activity),[28],76%
same,% Activity @ 50 XIU/ml (residual xylanase activity),[29],32%
same,% Activity @ 50 XIU/ml (residual xylanase activity),[30],64%
same,% Activity @ 5.6 XIU/ml (residual xylanase activity),[31],100%
same,% Activity @ 50 XIU/ml (residual xylanase activity),[32],78%
same,% Activity @ 50 XIU/ml (residual xylanase activity),[33],29%
same,% Activity @ 5.6 XIU/ml (residual xylanase activity),[34],99%
same,% Activity @ 33.5 XIU/ml (residual xylanase activity),[35],86%
